Reference: patent US20140213513A1 (Sanofi, priority 2012, published 2014)
*1 amine or outer side, *2 acyl side, *3 side chain or, on linkers, in order; H or OH if unused. Where no end group is shown, it is not given here. Side-chain parts run from the residue outwards. [ ]: non-standard residue; d: D form. The star is where a group is joined. γGlu = O=C(O)[C@H](CCC(=O)[*:2])N[*:1]; Palmitoyl = CCCCCCCCCCCCCCCC(=O)*; Aib = CC(C)(N)C(=O)O

T1: human GIP receptor (human, UniProt P48546 22-466)
T1 sequence (looked up): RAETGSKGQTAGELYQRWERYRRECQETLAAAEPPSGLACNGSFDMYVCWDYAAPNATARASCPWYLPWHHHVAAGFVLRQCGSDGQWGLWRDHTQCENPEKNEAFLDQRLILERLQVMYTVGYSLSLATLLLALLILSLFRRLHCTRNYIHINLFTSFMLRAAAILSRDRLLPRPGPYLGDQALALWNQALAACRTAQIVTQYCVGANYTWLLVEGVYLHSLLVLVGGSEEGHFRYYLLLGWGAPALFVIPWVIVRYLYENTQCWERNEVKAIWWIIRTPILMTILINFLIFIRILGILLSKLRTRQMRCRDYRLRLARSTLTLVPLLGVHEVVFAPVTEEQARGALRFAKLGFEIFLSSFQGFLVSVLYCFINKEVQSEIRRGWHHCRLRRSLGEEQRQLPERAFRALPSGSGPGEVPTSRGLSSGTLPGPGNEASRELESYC

B1: exendin-4 peptide analogue SEQ ID NO: 22 (peptide)
peptide: Y[Aib]QGTFTSDLSIQK([γGlu-Palmitoyl])EKRA[Aib][Aib]EFIEWLKNTGPSSGAPPPS-NH2
modifications: N-terminus assumed
SMILES: CCCCCCCCCCCCCCCC(=O)N[C@@H](CCC(=O)NCCCC[C@H](NC(=O)[C@H](CCC(N)=O)NC(=O)[C@@H](NC(=O)[C@H](CO)NC(=O)[C@H](CC(C)C)NC(=O)[C@H](CC(=O)O)NC(=O)[C@H](CO)NC(=O)[C@@H](NC(=O)[C@H](Cc1ccccc1)NC(=O)[C@@H](NC(=O)CNC(=O)[C@H](CCC(N)=O)NC(=O)C(C)(C)NC(=O)[C@@H](N)Cc1ccc(O)cc1)[C@@H](C)O)[C@@H](C)O)[C@@H](C)CC)C(=O)N[C@@H](CCC(=O)O)C(=O)N[C@@H](CCCCN)C(=O)N[C@@H](CCCNC(=N)N)C(=O)N[C@@H](C)C(=O)NC(C)(C)C(=O)NC(C)(C)C(=O)N[C@@H](CCC(=O)O)C(=O)N[C@@H](Cc1ccccc1)C(=O)N[C@H](C(=O)N[C@@H](CCC(=O)O)C(=O)N[C@@H](Cc1c[nH]c2ccccc12)C(=O)N[C@@H](CC(C)C)C(=O)N[C@@H](CCCCN)C(=O)N[C@@H](CC(N)=O)C(=O)N[C@H](C(=O)NCC(=O)N1CCC[C@H]1C(=O)N[C@@H](CO)C(=O)N[C@@H](CO)C(=O)NCC(=O)N[C@@H](C)C(=O)N1CCC[C@H]1C(=O)N1CCC[C@H]1C(=O)N1CCC[C@H]1C(=O)N[C@@H](CO)C(N)=O)[C@@H](C)O)[C@@H](C)CC)C(=O)O
B2: exendin-4 peptide analogue SEQ ID NO: 23 (peptide)
peptide: Y[Aib]QGTFTSDLSIQK([γGlu-Palmitoyl])EKRAA[Aib]YFIEWLKNTGPSSGAPPPS-NH2
modifications: N-terminus assumed
SMILES: CCCCCCCCCCCCCCCC(=O)N[C@@H](CCC(=O)NCCCC[C@H](NC(=O)[C@H](CCC(N)=O)NC(=O)[C@@H](NC(=O)[C@H](CO)NC(=O)[C@H](CC(C)C)NC(=O)[C@H](CC(=O)O)NC(=O)[C@H](CO)NC(=O)[C@@H](NC(=O)[C@H](Cc1ccccc1)NC(=O)[C@@H](NC(=O)CNC(=O)[C@H](CCC(N)=O)NC(=O)C(C)(C)NC(=O)[C@@H](N)Cc1ccc(O)cc1)[C@@H](C)O)[C@@H](C)O)[C@@H](C)CC)C(=O)N[C@@H](CCC(=O)O)C(=O)N[C@@H](CCCCN)C(=O)N[C@@H](CCCNC(=N)N)C(=O)N[C@@H](C)C(=O)N[C@@H](C)C(=O)NC(C)(C)C(=O)N[C@@H](Cc1ccc(O)cc1)C(=O)N[C@@H](Cc1ccccc1)C(=O)N[C@H](C(=O)N[C@@H](CCC(=O)O)C(=O)N[C@@H](Cc1c[nH]c2ccccc12)C(=O)N[C@@H](CC(C)C)C(=O)N[C@@H](CCCCN)C(=O)N[C@@H](CC(N)=O)C(=O)N[C@H](C(=O)NCC(=O)N1CCC[C@H]1C(=O)N[C@@H](CO)C(=O)N[C@@H](CO)C(=O)NCC(=O)N[C@@H](C)C(=O)N1CCC[C@H]1C(=O)N1CCC[C@H]1C(=O)N1CCC[C@H]1C(=O)N[C@@H](CO)C(N)=O)[C@@H](C)O)[C@@H](C)CC)C(=O)O
B3: exendin-4 peptide analogue SEQ ID NO: 27 (peptide)
peptide: Y[Aib]QGTFTSDLSIQK([γGlu-Palmitoyl])DKRAA[Aib]LFIEWLKAGGPSSGAPPPS-NH2
modifications: N-terminus assumed
SMILES: CCCCCCCCCCCCCCCC(=O)N[C@@H](CCC(=O)NCCCC[C@H](NC(=O)[C@H](CCC(N)=O)NC(=O)[C@@H](NC(=O)[C@H](CO)NC(=O)[C@H](CC(C)C)NC(=O)[C@H](CC(=O)O)NC(=O)[C@H](CO)NC(=O)[C@@H](NC(=O)[C@H](Cc1ccccc1)NC(=O)[C@@H](NC(=O)CNC(=O)[C@H](CCC(N)=O)NC(=O)C(C)(C)NC(=O)[C@@H](N)Cc1ccc(O)cc1)[C@@H](C)O)[C@@H](C)O)[C@@H](C)CC)C(=O)N[C@@H](CC(=O)O)C(=O)N[C@@H](CCCCN)C(=O)N[C@@H](CCCNC(=N)N)C(=O)N[C@@H](C)C(=O)N[C@@H](C)C(=O)NC(C)(C)C(=O)N[C@@H](CC(C)C)C(=O)N[C@@H](Cc1ccccc1)C(=O)N[C@H](C(=O)N[C@@H](CCC(=O)O)C(=O)N[C@@H](Cc1c[nH]c2ccccc12)C(=O)N[C@@H](CC(C)C)C(=O)N[C@@H](CCCCN)C(=O)N[C@@H](C)C(=O)NCC(=O)NCC(=O)N1CCC[C@H]1C(=O)N[C@@H](CO)C(=O)N[C@@H](CO)C(=O)NCC(=O)N[C@@H](C)C(=O)N1CCC[C@H]1C(=O)N1CCC[C@H]1C(=O)N1CCC[C@H]1C(=O)N[C@@H](CO)C(N)=O)[C@@H](C)CC)C(=O)O
B4: exendin-4 peptide analogue SEQ ID NO: 26 (peptide)
peptide: Y[Aib]QGTFTSDLSIQK([γGlu-Palmitoyl])EKRAV[Aib]EFIEWLKAGGPSSGAPPPS-NH2
modifications: N-terminus assumed
SMILES: CCCCCCCCCCCCCCCC(=O)N[C@@H](CCC(=O)NCCCC[C@H](NC(=O)[C@H](CCC(N)=O)NC(=O)[C@@H](NC(=O)[C@H](CO)NC(=O)[C@H](CC(C)C)NC(=O)[C@H](CC(=O)O)NC(=O)[C@H](CO)NC(=O)[C@@H](NC(=O)[C@H](Cc1ccccc1)NC(=O)[C@@H](NC(=O)CNC(=O)[C@H](CCC(N)=O)NC(=O)C(C)(C)NC(=O)[C@@H](N)Cc1ccc(O)cc1)[C@@H](C)O)[C@@H](C)O)[C@@H](C)CC)C(=O)N[C@@H](CCC(=O)O)C(=O)N[C@@H](CCCCN)C(=O)N[C@@H](CCCNC(=N)N)C(=O)N[C@@H](C)C(=O)N[C@H](C(=O)NC(C)(C)C(=O)N[C@@H](CCC(=O)O)C(=O)N[C@@H](Cc1ccccc1)C(=O)N[C@H](C(=O)N[C@@H](CCC(=O)O)C(=O)N[C@@H](Cc1c[nH]c2ccccc12)C(=O)N[C@@H](CC(C)C)C(=O)N[C@@H](CCCCN)C(=O)N[C@@H](C)C(=O)NCC(=O)NCC(=O)N1CCC[C@H]1C(=O)N[C@@H](CO)C(=O)N[C@@H](CO)C(=O)NCC(=O)N[C@@H](C)C(=O)N1CCC[C@H]1C(=O)N1CCC[C@H]1C(=O)N1CCC[C@H]1C(=O)N[C@@H](CO)C(N)=O)[C@@H](C)CC)C(C)C)C(=O)O
B5: exendin-4 peptide analogue SEQ ID NO: 24 (peptide)
peptide: Y[Aib]QGTFTSDLSIQK([γGlu-Palmitoyl])EKRAV[Aib]LFIEWLKAGGPSSGAPPPS-NH2
modifications: N-terminus assumed
SMILES: CCCCCCCCCCCCCCCC(=O)N[C@@H](CCC(=O)NCCCC[C@H](NC(=O)[C@H](CCC(N)=O)NC(=O)[C@@H](NC(=O)[C@H](CO)NC(=O)[C@H](CC(C)C)NC(=O)[C@H](CC(=O)O)NC(=O)[C@H](CO)NC(=O)[C@@H](NC(=O)[C@H](Cc1ccccc1)NC(=O)[C@@H](NC(=O)CNC(=O)[C@H](CCC(N)=O)NC(=O)C(C)(C)NC(=O)[C@@H](N)Cc1ccc(O)cc1)[C@@H](C)O)[C@@H](C)O)[C@@H](C)CC)C(=O)N[C@@H](CCC(=O)O)C(=O)N[C@@H](CCCCN)C(=O)N[C@@H](CCCNC(=N)N)C(=O)N[C@@H](C)C(=O)N[C@H](C(=O)NC(C)(C)C(=O)N[C@@H](CC(C)C)C(=O)N[C@@H](Cc1ccccc1)C(=O)N[C@H](C(=O)N[C@@H](CCC(=O)O)C(=O)N[C@@H](Cc1c[nH]c2ccccc12)C(=O)N[C@@H](CC(C)C)C(=O)N[C@@H](CCCCN)C(=O)N[C@@H](C)C(=O)NCC(=O)NCC(=O)N1CCC[C@H]1C(=O)N[C@@H](CO)C(=O)N[C@@H](CO)C(=O)NCC(=O)N[C@@H](C)C(=O)N1CCC[C@H]1C(=O)N1CCC[C@H]1C(=O)N1CCC[C@H]1C(=O)N[C@@H](CO)C(N)=O)[C@@H](C)CC)C(C)C)C(=O)O
B6: exendin-4 peptide analogue SEQ ID NO: 25 (peptide)
peptide: Y[Aib]QGTFTSDLSIQK(Palmitoyl)EKRAV[Aib]LFIEWLKAGGPSSGAPPPS-NH2
modifications: N-terminus assumed
SMILES: CCCCCCCCCCCCCCCC(=O)NCCCC[C@H](NC(=O)[C@H](CCC(N)=O)NC(=O)[C@@H](NC(=O)[C@H](CO)NC(=O)[C@H](CC(C)C)NC(=O)[C@H](CC(=O)O)NC(=O)[C@H](CO)NC(=O)[C@@H](NC(=O)[C@H](Cc1ccccc1)NC(=O)[C@@H](NC(=O)CNC(=O)[C@H](CCC(N)=O)NC(=O)C(C)(C)NC(=O)[C@@H](N)Cc1ccc(O)cc1)[C@@H](C)O)[C@@H](C)O)[C@@H](C)CC)C(=O)N[C@@H](CCC(=O)O)C(=O)N[C@@H](CCCCN)C(=O)N[C@@H](CCCNC(=N)N)C(=O)N[C@@H](C)C(=O)N[C@H](C(=O)NC(C)(C)C(=O)N[C@@H](CC(C)C)C(=O)N[C@@H](Cc1ccccc1)C(=O)N[C@H](C(=O)N[C@@H](CCC(=O)O)C(=O)N[C@@H](Cc1c[nH]c2ccccc12)C(=O)N[C@@H](CC(C)C)C(=O)N[C@@H](CCCCN)C(=O)N[C@@H](C)C(=O)NCC(=O)NCC(=O)N1CCC[C@H]1C(=O)N[C@@H](CO)C(=O)N[C@@H](CO)C(=O)NCC(=O)N[C@@H](C)C(=O)N1CCC[C@H]1C(=O)N1CCC[C@H]1C(=O)N1CCC[C@H]1C(=O)N[C@@H](CO)C(N)=O)[C@@H](C)CC)C(C)C

Target: T1, human GIP receptor
Test: cell-based or functional assay

Binder | EC50 hGIP R [nM]
B1 | 0.102
B2 | 0.135
B3 | 0.0826
B4 | 0.0053
B5 | 0.0104
B6 | 0.176

Target: human GLP-1 receptor (human, UniProt P43220 24-463)
Test: cell-based or functional assay

Binder | EC50 hGLP-1 R [nM]
B1 | 0.0085
B2 | 0.0092
B3 | 0.0147
B4 | 0.0176
B5 | 0.0192
B6 | 0.037

Target: human glucagon receptor (human, UniProt P47871 26-477)
Test: cell-based or functional assay

human glucagon receptor, sequence (P47871 26-477): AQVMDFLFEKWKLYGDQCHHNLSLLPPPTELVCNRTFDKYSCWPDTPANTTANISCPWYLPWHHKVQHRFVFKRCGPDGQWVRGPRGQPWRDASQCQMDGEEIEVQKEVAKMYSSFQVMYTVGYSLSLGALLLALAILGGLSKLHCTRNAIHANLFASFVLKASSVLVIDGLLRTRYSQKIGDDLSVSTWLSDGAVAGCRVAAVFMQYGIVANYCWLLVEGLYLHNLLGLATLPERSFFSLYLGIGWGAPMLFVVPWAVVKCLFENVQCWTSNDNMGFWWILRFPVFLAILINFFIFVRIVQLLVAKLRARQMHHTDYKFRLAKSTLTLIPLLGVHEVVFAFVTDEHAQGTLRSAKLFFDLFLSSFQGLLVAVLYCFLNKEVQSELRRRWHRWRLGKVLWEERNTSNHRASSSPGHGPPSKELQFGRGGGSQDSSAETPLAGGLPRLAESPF

Binder | EC50 hGLUC R [nM]
B1 | 2.21
B2 | 0.312
B3 | 0.0389
B4 | 0.3
B5 | 0.284
B6 | 2.03
